B1: Voltage-gated delayed rectifier potassium channel KCNH1 (Homo sapiens), O95259-2 (parent)
chain: MTMAGGRRGLVAPQNTFLENIVRRSNDTNFVLGNAQIVDWPIVYSNDGFCKLSGYHRAEVMQKSSTCSFMYGELTDKDTIEKVRQTFENYEMNSFEILMYKKNRTPVWFFVKIAPIRNEQDKVVLFLCTFSDITAFKQPIEDDSCKGWGKFARLTRALTSSRGVLQQLAPSVQKGENVHKHSRLAEVLQLGSDILPQYKQEAPKTPPHIILHYCVFKTTWDWIILILTFYTAILVPYNVSFKTRQNNVAWLVVDSIVDVIFLVDIVLNFHTTFVGPAGEVISDPKLIRMNYLKTWFVIDLLSCLPYDVINAFENVDEGISSLFSSLKVVRLLRLGRVARKLDHYIEYGAAVLVLLVCVFGLAAHWMACIWYSIGDYEIFDEDTKTIRNNSWLYQLAMDIGTPYQFNGSGSGKWEGGPSKNSVYISSLYFTMTSLTSVGFGNIAPSTDIEKIFAVAIMMIGSLLYATIFGNVTTIFQQMYANTNRYHEMLNSVRDFLKLYQVPKGLSERVMDYIVSTWSMSRGIDTEKVLQICPKDMRADICVHLNRKVFKEHPAFRLASDGCLRALAMEFQTVHCAPGDLIYHAGESVDSLCFVVSGSLEVIQDDEVVAILGKGDVFGDVFWKEATLAQSCANVRALTYCDLHVIKRDALQKVLEFYTAFSHSFSRNLILTYNLRKRIVFRKISDVKREEEERMKRKNEAPLILPPDHPVRRLFQRFRQQKEARLAAERGGRDLDDLDVEKGNVLTEHASANHSLVKASVVTVRESPATPVSFQAASTSGVPDHAKLQAPGSECLGPKGGGGDCAKRKSWARFKDACGKSEDWNKVSKAESMETLPERTKASGEATLKKTDSCDSGITKSDLRLDNVGEARSPQDRSPILAEVKHSFYPIPEQTLQATVLEVRHELKEDIKALNAKMTNIEKQLSEILRILTSRRSSQSPQELFEISRPQSPESERDIFGAS
partner: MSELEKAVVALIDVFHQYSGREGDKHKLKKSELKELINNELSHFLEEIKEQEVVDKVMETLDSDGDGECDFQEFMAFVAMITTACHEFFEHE

Variants of: B1
Conditions: with S100B

Effect of a mutation on the interaction, disrupting interaction:
F714S
F717S

Variants of: B1
Conditions: with S100B
Remark: another data set of the same source

Effect of a mutation on the interaction, disrupting interaction:
R677N
R675N
K682N
R681N
